Test results reported in patent US20210186010A1, “SURFACES […] QUORUM SENSING MODULATORS” (priority 2015, published 2021).
“And” between values parts separate entries of the source, which are not always exact repeats. Equal values may be shown once.

What was measured:
[1] = tested on: Agr QS in the S. aureus reporter strain; test: Solution Assay: fluorescence reporter assay (agrP3-mkate2 normalized to sarAP1-gfpmut2), plate reader; assay type: cell-based, Staphylococcus aureus; settings: activation of Agr QS, compound in solution; n=3 experiments
Procedure: Transcription from fluorescence reporter genes was measured in S. aureus strain MK242. Overnight cultures were diluted 1:200 into fresh TSB with 10 µg/ml tetracycline and 10 µg/ml erythromycin, re-grown, and 90 μl of these cultures were distributed into wells of 96 well plates (MatTek, Ashland, Mass.), followed by addition of 10 μl of AIP-I and/or TrAIP-II and/or derivatives. Subsequently, 50 μl of mineral oil was added (Sigma, St. Louis, Mo.) to prevent evaporation. Using a Synergy 2 plate reader (Biotek, Winooski, Vt.), GFPmut2 and mKate2 levels were measured at 484 nm/528 nm and 588 nm/633 nm, respectively. Measurements were conducted with 15 min intervals at 37° C. with shaking. This assay was called “Solution Assay”.
To make AIP-I amenable to surface attachment, AIP-I containing an alkyne at the N-terminus was synthesized (FIG. 7A and FIG. 8A). This compound was called “Alkyne-AIP-I” (FIG. 2A). Prior to attaching the Alkyne-AIP-I to the surface linkers, the click reaction was carried out between the Alkyne-AIP-I and a surface-free version of the PEG330-azide linker to test if the AIP-I derivatives retained their activation capability following the click reaction. […] This compound was called “PEG330-triazole-AIP-I” (FIG. 2A (iii), FIG. 7A and FIG. 8B).
It was investigated whether a QS antagonist, when immobilized on a surface, could interfere with Agr QS signal transduction. […]

[2] = tested on: Agr QS in the S. aureus reporter strain; test: Fluorescence imaging / single-cell analysis of S. aureus reporter strain incubated with compounds in solution; assay type: cell-based, Staphylococcus aureus; settings: 100 nM AIP-I, 3 h incubation
Text: FIG. 1 Includes FIG. 1A-FIG. 1C. FIG. 1A. illustrates the Agr QS responses of S. aureus to exogenously supplied agonists and antagonists. To follow the QS status of S. aureus cells growing on unmodified and chemically-modified surfaces, confocal microscopy and an S. aureus reporter strain that produced the fluorescent protein mKate2 in response to exogenous addition of AIP-I was used. The reporter strain was a ΔagrBDCA ΔRNAIII S. aureus mutant harboring a multicopy plasmid carrying agrCA driven by the native agrP2 promoter. […] The plasmid also harbored the Agr-activated agrP3 promoter fused to mkate2. Therefore, in response to exogenously provided AIP-I, the reporter strain fluoresced red. This QS response was repressed by the administration of TrAIP-II. A constitutively expressed sarAP1-gfpmut2 gene was introduced into the chromosome to enable normalization of QS responses^18. FIG. 1B. […]
FIG. 1B. Fluorescence images of the S. aureus reporter strain (pathways shown in panel FIG. 1A) after 3 h incubation with buffer or buffer containing 100 nM AIP-I agonist. […] Fluorescence images of the S. aureus reporter strain used in this study following 3 h incubation with TrAIP-II or with combinations of AIP-I and TrAIP-II. […]
FIG. 6. […] To identify the source of heterogeneity, the fluorescent protein distributions in individual cells was measured under different conditions. […]

[3] = target: AgrC-I receptor (Staphylococcus aureus (agr-I)); test: cell-based or functional assay

Substance	EC50 of Agr QS activation (agrP3-mkate2 reporter normalised to constitutive GFPmut2, solution assay, S. aureus reporter strain) [3] [nM]	IC50 of Agr QS inhibition when AIP-I is present at 100 nM (reporter solution assay) [3] [nM]	also measured
AIP-I			EC50 [1]: 28 nM and 30 nM; mKate2 production (QS-controlled reporter) [2]: mKate2 was produced only when AIP-I was supplied to the cells
AIP-I (peptide)	28		
Alkyne-AIP-I (peptide)	190		
Alkyne-TrAIP-II (peptide)		210	
PEG330-triazole-AIP-I (peptide)	1100		
PEG330-triazole-TrAIP-II (peptide)		3100	
Surface-PEG10000-triazole-AIP-I (peptide)			activation of the Agr QS response at T=6 h against T=0 h (surface assay, microfluidic chambers) [3]: 25 fold; surface coverage density above which the QS response is saturated [3]: > 16000 µm^-2; surface coverage density below which no QS response is elicited [3]: < 210 µm^-2
TrAIP-II (peptide)		1500	decrease in QS inhibition when TrAIP-II is lowered from 2.5 µM to 250 nM, with 100 nM AIP-I [3]: 9 fold
